Reference: patent publication US20200247894A1 (Regeneron, published 2020)

T1: Macaca fascicularis IL2Rγ extracellular domain expressed with a C-terminal myc-myc-hexahistidine tag (Macaca fascicularis)
T1 construct: also called mfIL-2Rg-MMH; mfIL-2RG-MMH
T1 chain: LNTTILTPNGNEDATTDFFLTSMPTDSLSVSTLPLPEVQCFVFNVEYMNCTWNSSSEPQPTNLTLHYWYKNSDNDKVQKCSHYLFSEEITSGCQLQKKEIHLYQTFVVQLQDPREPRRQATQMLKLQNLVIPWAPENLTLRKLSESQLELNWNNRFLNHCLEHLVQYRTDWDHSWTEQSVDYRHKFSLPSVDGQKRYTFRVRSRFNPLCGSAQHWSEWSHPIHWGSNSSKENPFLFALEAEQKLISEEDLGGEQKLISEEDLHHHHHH

T2: Human IL2Rγ extracellular domain expressed with a C-terminal myc-myc-hexahistidine tag (human)
T2 construct: also called hIL-2Rg-MMH; hIL-2RG-MMH
T2 chain: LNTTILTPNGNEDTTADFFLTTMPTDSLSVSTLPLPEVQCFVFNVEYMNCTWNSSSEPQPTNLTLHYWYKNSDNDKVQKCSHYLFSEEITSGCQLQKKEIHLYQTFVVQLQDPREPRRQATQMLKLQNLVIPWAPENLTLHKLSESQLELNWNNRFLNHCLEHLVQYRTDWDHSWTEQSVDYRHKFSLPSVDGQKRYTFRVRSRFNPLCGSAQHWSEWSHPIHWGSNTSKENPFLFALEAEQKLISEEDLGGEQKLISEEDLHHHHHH


Tests used:
[1] = biological target: T1, Macaca fascicularis IL2Rγ extracellular …; assay: SPR Biacore 4000, mAb captured by anti-hFc, HBS-ET, 25C
Experimental: (§1) Equilibrium dissociation constants (KD values) for IL-2Rγ binding to purified anti-IL2Rγ monoclonal antibodies were determined using a Biacore 4000 instrument equipped with a real-time surface plasmon resonance biosensor. All binding studies were performed in 10 mM HEPES, 150 mM NaCl, 3 mM EDTA, and 0.05% v/v Surfactant Tween-20, pH 7.4 (HBS-ET) running buffer at 25° C. and 37° C. The Biacore sensor surface was first derivatized by amine coupling with a monoclonal mouse anti-human Fc antibody (GE, # BR-1008-39) to capture anti-IL2Rγ monoclonal antibodies.
(§2) The dissociation of monoclonal antibody bound IL2Rγ reagents were monitored for 8-10 minutes in HBS-ET running buffer. Kinetic association (kₐ) and dissociation (kd) rate constants were determined by fitting the real-time sensorgrams to a 1:1 binding model using Scrubber 2.0c curve fitting software. Binding dissociation equilibrium constants (KD) and dissociative half-lives (t_{1/2}) were calculated from the kinetic rate constants as: […]

[2] = biological target: T2, Human IL2Rγ extracellular domain …; assay: as above
Experimental: as §1, §2

[3] = biological target: T2, Human IL2Rγ extracellular domain …; assay: SPR Biacore 4000, mAb captured by anti-hFc, HBS-ET, 37C
Experimental: as §1, §2

[4] = biological target: T1, Macaca fascicularis IL2Rγ extracellular …; assay: SPR Biacore 4000, mAb captured by anti-hFc, 37C, dissociation in PBS-T pH 7.4
Experimental: (§3) The dissociation rate constant (kd) for binding of IL-2Rγ reagents to purified anti-IL2Rγ monoclonal antibodies was determined using a real-time surface plasmon resonance based Biacore 4000 biosensor platform. […] The CM5 Biacore sensor surface derivatized by amine coupling with monoclonal mouse anti-human Fc antibody (GE, Catalog # BR-1008-39) was used to capture anti-IL2Rγ monoclonal antibodies expressed with human IgG4 Fc. All the IL2Rγ reagents were expressed with a C-terminal myc-myc-hexahistidine tag (subsequently referred to with a -MMH suffix). […] The dissociation of bound IL-2Rg-MMH was performed in PBS-T-pH7.4 or PBS-T-pH6.0 running buffers for 6 minutes.
(§4) Dissociation rate constants (kd) in two running buffers were determined by fitting the real-time binding sensorgrams to a 1:1 binding model using Scrubber 2.0c curve-fitting software. Values of dissociation rate for […] mAb binding to hIL-2RG-MMH and mfIL-2RG-MMH at 25° C. and 37° C. in PBS-T-pH7.4 and PBS-T-pH6.0 is shown in Table 2-1 through Table 2-8.

[5] = biological target: T1, Macaca fascicularis IL2Rγ extracellular …; assay: SPR Biacore 4000, mAb captured by anti-hFc, 37C, dissociation in PBS-T pH 6.0
Experimental: as §3, §4

Row | Binder | 100 nM Ag Bound [1] [RU] | Kd [1] [nM] | koff [1] [s⁻¹] | kon [1] [M⁻¹ s⁻¹] | t1/2 [1] [min] | 100 nM Ag Bound [2] [RU] | Kd [2] [nM] | koff [2] [s⁻¹] | kon [2] [M⁻¹ s⁻¹] | t1/2 [2] [min] | 100 nM Ag Bound [3] [RU] | Kd [3] [nM] | koff [3] [s⁻¹] | kon [3] [M⁻¹ s⁻¹] | t1/2 [3] [min] | 100 nM Ag Bound (RU) [4] [RU] | koff [4] [s⁻¹] | t1/2 [4] [min] | 100 nM Ag Bound (RU) [5] [RU] | koff [5] [s⁻¹] | further results
1 | H4H12863P (antibody, human IgG4 S228P, kappa, V domains shown, anti-IL2Rγ monoclonal antibody expressed with human IgG4 Fc) VH: QVQLVESGGGVVQPGRSLRLSCTASGFTFRSYDMYWVRQAPGKGLEWVSVITYDGNNKYYADSVKGRFTISRDNSKNTLFLQMSSLRPEDTAVYYCAKRGLIWVGESFDYWGQGTLVTVSS VL: DIQMTQSPSTLSASVGDRVTITCRASQSINSWLAWYQQKPGKAPNLLIYKASSLESGVPSRFSGSGSGTEFTLTISSLQPDDFATYYCQQYKSYSWTFGQGTKVEIKR | 81 | 1.91 | 0.00036 | 189000 | 32 | 91 | 1.7 | 0.000384 | 226000 | 30 | 77 | 4.11 | 0.00151 | 367000 | 8 | 177 | 0.000606 | 19 | 141 | 0.00208 | t1/2 [5]: 6 min
2 | H4H12922P2 (antibody, human IgG4 S228P, kappa, V domains shown, anti-IL2Rγ monoclonal antibody expressed with human IgG4 Fc; also called REGN7256) VH: QVQLVESGGGVVKPGGSLRLSCAASGFTFSNSGIHWVRQAPGKGLEWVALISYAGSNKYYADSVKGRFTISRDNSKNTLSLQMNSLRAEDTAVYYCAKEVWTGTYDSFDMWGRGTMVTVSS VL: not shown | 76 | 1.64 | 0.000386 | 235000 | 30 | 79 | 1.3 | 0.000386 | 297000 | 30 | 44 | 2.58 | 0.00105 | 407000 | 11 | 185 | 0.000693 | 17 | 146 | 0.00344 | t1/2 [5]: 3.4 min
3 | H4H12871P (antibody, human IgG4 S228P, kappa, V domains shown, anti-IL2Rγ monoclonal antibody expressed with human IgG4 Fc; also called REGN9434) VH: QVQLQESGPGLVKPSQTLSLTCTVSGGSITSGGYYWSWIRQYPGQGLEWIGYIYYSGKTYYNPSFTSRITISVDTSKKQFSLKMSSVTAADTAVYYCARAGFTSSNGWFDPWGQGTLVTVSS VL: DIQMTQSPSSLSASVGDRVTITCRASQNIRSYLNWYQQKPGKAPKLLIYSASSLQSGVPSRFSGSGSGTDFTLTISSLQPEDFPTYYCQQTYSSPWTFGPGTKVEIKR | 72 | 5.19 | 0.000905 | 174000 | 13 | 77 | 5.03 | 0.001 | 199000 | 12 | 61 | 10.6 | 0.00266 | 250000 | 4 | 143 | 0.00102 | 11 | 141 | 0.00227 | t1/2 [5]: 5 min
4 | H4H12858P (antibody, human IgG4 S228P, kappa, V domains shown, anti-IL2Rγ monoclonal antibody expressed with human IgG4 Fc; also called REGN9433) VH: EVQLVESGGDLVQPGGSLRLSCTASGFIFRNYAMNWVRQAPGKGLEWLSGILGSNDNTYYVDSVKGRFTISRDNSRNTLYLQMNSLRAEDSAVYYCAKGDAGGFDYWGQGTLVTVSS VL: DVVMTQSPLSLPVILGQPASISCRSSQSLVSSDGNTYLNWFQQRPGQSPRRLIYKVSNRDSGVPDRFSGSGSGTDFTLKISRVEAEDVGAYYCMQGSYWPPTFGQGTKLEIKR | 58 | 2.36 | 0.000269 | 114000 | 43 | 67 | 1.23 | 0.000316 | 257000 | 37 | 57 | 4.52 | 0.00174 | 386000 | 7 | 143 | 0.000542 | 21 | 134 | 0.00155 | t1/2 [5]: 7 min
5 | H4H12884P (antibody, human IgG4 S228P, kappa, V domains shown, anti-IL2Rγ monoclonal antibody expressed with human IgG4 Fc) VH: QVQLQESGPGLVKPSQTLSLTCTVSGGSISSGGYYWSWIRQHPGKGLEWIGFIYYSGKTYYNPSLKSRLTISVDTSKSQFSLKLRSVTAADTAVYYCARLGYTNSAGWFDPWGQGTLVTVSS VL: DIQMTQSPSSLSASVGDRVTITCRASQSISSYLNWYQQKPGKAPNLLIYAASSLQSGVPSRFSGSGSGTDFTLTISSLQPEDLATYYCQQSYTTPFTFGPGTKVDIKR | 82 | 6.98 | 0.00121 | 174000 | 10 | 84 | 6.96 | 0.00139 | 199000 | 8 | 62 | 13.1 | 0.00336 | 257000 | 3.4 | 171 | 0.00147 | 8 | 135 | 0.00335 | t1/2 [5]: 3.4 min
6 | H4H12859P (antibody, human IgG4 S228P, kappa, V domains shown, anti-IL2Rγ monoclonal antibody expressed with human IgG4 Fc) VH: QVQLVQSGAEVKKPGASVRVSCKASGYTFTDYDIHWVRQAPGHGLEWMGWINPNSGGTNYAQKFQGRVTMTRDTSISTVYMDLSRLRSDDTAVYYCARADYSSSYYYYGMDVWGQGTTVTVSS VL: not shown | 17 | 126 | 0.00507 | 40300 | 2.3 | 27 | 87.6 | 0.00321 | 36600 | 4 | 18 | 187 | 0.0129 | 69000 | 0.9 | 47 | 0.00397 | 2.9 | 31 | 0.0123 | t1/2 [5]: 0.9 min
7 | H4H12874P (antibody, human IgG4 S228P, kappa, V domains shown, anti-IL2Rγ monoclonal antibody expressed with human IgG4 Fc) VH: QVQLVESGGGVVQPGRSLRLSCAASGFNFRNFGMHWVRQAPGKGLEWVAGILYDGSSKYYADSVKDRFTISRDNSKNTLFLQMNSLRAEDTAMYYCAKEEDTAMVPFDSWGPGTLVTVSS VL: DIQLTQSPSFLSASVGDRVTITCWASQGISSYLAWYQQKPGKAPTLLIYAASTLQSGVPSRFSGSGSGTEFTLTISSLQPEDFASYYCQQLKSYPLTFGGGTKVEIKR | 50 | 4.28 | 0.000306 | 71500 | 38 | 57 | 3.57 | 0.000305 | 85200 | 38 | 52 | 10.4 | 0.00125 | 120000 | 9 | 92 | 0.000541 | 21 | 82 | 0.00255 | t1/2 [5]: 5 min
8 | H4H12913P2 (antibody, human IgG4 S228P, kappa, V domains shown, anti-IL2Rγ monoclonal antibody expressed with human IgG4 Fc) VH: EVQLVESGGGVVRPGGSLRLSCAASGFTFDDYGMSWVRQAPGKGLEWISSINRNGGSADYADSVKGRFTISRDNAKNSLFLQMSSLRAEDTALYHCASGEFRFDYWGQGTLVTVSS VL: not shown | 34 | 14.1 | 0.000633 | 44900 | 18 | 42 | 11.2 | 0.000691 | 62000 | 17 | 24 | 33.4 | 0.00348 | 104000 | 3.3 | 76 | 0.000894 | 13 | 54 | 0.00296 | t1/2 [5]: 4 min
